Experimental findings from patent US20140206628A1 (University of Washington, published 2014) are described below.

Assay [1] deals with T1, A/South Carolina/1/1918 (H1N1) hemagglutinin ectodomain, biotinylated (Influenza A virus A/South …). Kind of assay: yeast surface display titration.
Assay [2] concerns the target T1, A/South Carolina/1/1918 (H1N1) …. Kind of assay: yeast surface display titration. This is another data set of the same source.

Read-outs that look alike come from different tables or passages of the source.

B1: HB36.4_s4_E11 (designed binder)
chain: MSNAMDGQQLNRLLLEWIGAWDPFGLGKDAYDVEADAVLKAVYETNSAFDLAMRIHWIYNFAFKRKIPFVHAQKLARRLLELKQAASSPLP
As for B1, the binding result in assay [1] was “binds”.

B2: HB80.3_s4_E82 (designed binder)
chain: MASTRGSGRPWKFSENVAFEIALSFTNKDTPDRWAKVARYVRGRTPEEVKKHYE
Consider B2, for which, in assay [2], the binding result was “binds”.

B3: HB80.3_s4_E94 (designed binder)
chain: ASTRGSGRPWKFSENVAFELALYFTNKDTPDRWAKVARYVKGRTPEEVKKHYE
For the molecule B3, in assay [2], the binding result is recorded as “binds”.
